Measurements taken from the domain aggregation screens of Martell et al. (2025).

Assay: soluble fraction after stress (log2 fold change); higher = more stays soluble; pooled small domains, quantitative proteomics
Settings: stress: 50 degC
In short: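 After stress at 50°C, the amount of each protein still soluble was measured. This was done on pooled custom libraries of small protein domains, using high-throughput quantitative proteomics. The figure given is a base-two log fold change and stands for aggregation propensity, with higher values meaning more protein stays in solution.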

Sequence | soluble fraction (log2)
HMAPPPLAGAREALREQIRRGSLSARRGFDAYADALGLPAGTRGAHPIFAALQRLDYPQALRLLDQEPT | 0.0894
HMIAITVGSKVRVKAGATFSDGTKPFTEVYNTVYDVQLLSRNGKEARIGIGEQWTGWMYISDLYPADQ | -0.359
HMTMEFGEFLAKLRKERGYYQKEVAAYLNVTVATISNYEKNVHAPDLDTLVKLADFYDVSTDYLLQRT | -2.98
HMKTGNIVMVNLGWKGKYYSIKMFFPQVSKPSRKDVQDQIEKIYPGGKLYTFVVSNYEPGEPMLHA | -1.06
HMSSRSLSYSDFIERVDAGQVSKVVMDGERLVVVGQDGTSYVTIKPPGDQVTENLSRELISKGVEVEAEPQ | 0.0107
HMRRLGTTEIAGILRREISQGILIAKERLPSERSLADTYGVARGTVRQALNLLAREGLVQIRRSSGAYVTF | -0.33
HMDFSENEPVTVRVLSILKNNTIRIAVKGAVLQAQTALSQDIREGAFLLMRVHITDNTVVLTPY | 0.0533
HMTRVDKLQTWLSLPREQRDWDEGALMLLQLTGNKIMYRNLSVNPEGKANFIEGKLQQYLEFRLA | -1.26
HMNSRTLAYSDFIRKVDKGEVSAVVIDGEQVQVQTKDGQTFVTIQPQSEQMNDKLVEQLIAKDISVKAERQ | 0.158
HMFTKSNLEKLSNSELILKAIDSGNYSKIEFGGSEALNPDVPSYKKDLKNREELIEILSEMGM | -0.0323
HMAVRTELLALPAGWHGDASRLSTALAALQGVREAVVIASEGVAYLKVHGHDWDRDGARELLQN | 0.00676
HMDLSYPFTTVTTDNVNMRRSASSSSVVLERIDKGDSITVLGTSGNYYKVSYNDRTGYVLKQYVDVSAATT | -0.173
HMTYTGTVTGVDEGGLRVRSSTSTENTSNVITKVYTGDTFDVLDTVYNGSAKWYKIGFTYNGTYTYGYVSA | -1.17
HMEKEKIKEALIGYFEAEPEEKFTVQELADKLKMNKAGQFNFVVQAVAQLEHDKVITLDDEGNFSLVRHE | -0.623
HMAQISDESALYDLVKSVLDANPQSIADYKAGRDRALGFLMGQAMKLSKGKANPPVINKILKEMLDK | 0.0791
HMRRSSQQLTLTEVSTIKEMVTSEEYRHVPTGTLALLAQRLRKVFASSSTWYRLVRIYKWRRPRGRIH | 0.549
HMDLLKANNLSQINVDKLTDEEILKYSQQLKQSGLTESQAEQIAIARGMPATEIAKLKQRLISLTNMQ | 0.133
HMAQLVVTVDKLNKRTAIPVTLSDKSSNDSVVEKGFRFEGFPFVNTATNGKKWYKDREGFFYWAGGLMEEA | 0.0125
HMRQSSLRTRELLIDAARQLFARFGVEKTTMNDIAEASKRGRRTVYMYFNSKSDVFYAVVGRE | -0.212
HMKTALDEAKDFLNGALSKGHRPASDVVDEAKEASISEKTLKRAKLAIGIITRKEGFGSEGKWVWELPAR | -0.341
HMGLQDLFLNSLRKSKTPVTMFLVKGVKLQGVVTWFDNFSVLLRRDGMSQLVYKHSISTIMP | -0.0722
HMHYALTVDFPAALEARIDPAHRAALRGVLAHDPRPSYQSDPERLYGVAFAGKNVKFTVEDGVLTVRKIEE | 0.0218
HMDFKKKIIESWADIAETLRGLTVDSNISDWTTKQKNAYETLADKAELAGLSIADLNSILVELGYM | -0.0868

Sequence | soluble fraction (log2)
HMSADLVYLRKRLQDAIAQLPENMRTAYTLFQIANRSIREISELTGASESLVKVRIHRAKGKLQKQLEDLK | -1.33
HMAVSGRGSIIGGVATVLDDFADSGKVWLEGEAWQARSSVPLKQDQEVVVRAMDGLVLVVEPVA | -0.198
HMHRTMFYLDVDLAEGQSVKMAVHEDDDPGELAARFADEHQLKSRAMEKLRSVIEENVRLHRRNQ | -0.306
HMYIDNVTIYDVGFNERIVHALERAGVKNLYDLSQMNFYQLQRIRNLGASSLEKVINRIHSYGILLKNES | -1.2
HMSFMFEISVIRSQYNMQDPESKTGFYNAIAKKLLEFPEKLERDNYTEAVAREYMIPETDLKNLVNSMGG | -2.17
HMTEKQYIYSIGDRVNIGTDEFEIVNINEKEVSIADVTFPMLVKQISYEEFDRKVKENPFNDHLII | 0.0642
HMVSFAEQASDWLAHFDRLGDVGPDTTLTDLTARDAEFSAWVNEGIHHRVAFLETLAAWHRTER | -0.774
HMSQDTLIENGKVFLIHKVVAGQTLYGLSKAYNITIEDIIKYNPQAENGIKIGEDIKIFLKEE | -0.432
HMLTEREQDTLNFIRQYIDEQGRSPLVSEIAKGLGIKSQGTTHRYIQALVDAGLLERHVGRTRGLHLT | 0.0721
HMRYFDDEELNNKFLEFLSMRKKIRKPVRTDRALKALLKKLHELSGGDVGLMKQIIDQSLDKEWLGLFEL | -0.422
HMAAIPEQVSEEVVSAVKASGIDPGKVTKEQWTSLLKGRRTALGSSSGKLFMLSKAPVGYTLKAVNA | 0.333
HMSDPEAFIRQTVAAAEPEGIALSVLGKRVRGKFRTFKLRDLGYAQFRPYLGDLDGIKVEQRDGQSYARLD | -0.795
HMTIYPFNPNYLKDYQAYRVGLSLKEIDALLDFRSSGQWINSAEDFQRITGVSDSVLEQLIPYFKFS | -2.49
HMANLDSLIKKVGQYAKDKQSISVDGIKKDLSIDKDMVKEALAELLKIGVVDKPDEAGQYKVIM | 0.299
HMPAEEVPLYKAVVVTTPPNRLRVRFSPAGDFKRWLQSGEEVDVYQELGDWRRIEPNGWSSAEWLQRVG | -0.157
HMGAIVTGTVVEIRSDVVIVNAGLKSEGVVPIEQFRNEAGELEVSVGDEVKVALDALEDGFGETRLS | -0.329
HMKISIDNPSVLLDKLATLFPDTSKNKLRKMLTEGRIYVNDNIEHRAKRELINGDTVKILDKTTSKE | 0.0915
HMAKNSVLTIELWNSTAFKWRKDTEPYSESMSVDFNRSVRLTDGISIMFSKFGFVPGIQYLIPLQT | -0.0652
HMSEMDNMEWVREQYFQNMIYEIGEWVRDKKTGIVGEVVKRGTNYVTVVQEDFSLHKIWLEDLETTEK | -0.821
HMGDAVYSKVKDLVNTYNALAKQTGKSDLVSISQSRTWMVNDTKAHEVQWNKIGITIEDDQTLTI | 0.179
HMHALSVKFSDEAAKTLPYDILSALRDVLALDPRPGYSRDENKIYRFEYADYNISFSVKDKTLTVLSAEK | -0.384
HMSKLQETEIPVALEVEKIPGLSNELKQKLLKIKPQTIGQASRISGITPAAISILMIYIKKNESISAVK | -1.57
HMNFTEAEQRFHFLEDQRQRGVLSLEQYRAELAQLRVTDAWGRLWMLQEQTGQWFVFHEGQWRPSQ | -0.124

Sequence | soluble fraction (log2)
HMEETLRELAVKISKQVIKTGRNSVLEPMNPYERRIIHAVISEIEGVSSKSVGEDPNRKVVIMSTNP | -0.126
HMLDEKAVRQYLLNTLENSEIKMDRQAIDLFLRLTDLDLSKMMRELQKILLYGQEQEVITVKEIEQ | -0.856
HMELTDSLTENAKKLYSVLTTEPRHIDDLSEEAKLSSADTLAALTELELYSLVALSEGKHYYK | 0.00954
HMEYYIMPVANLHKVVVDGKDMSNLISNNAIAVKANVIDEGQIQIKPGEIIITTPAGVSPEEAVRSP | 0.441
HMERPPHELLSDREYQTMVMIASGRTLTQIAEEMSLSPKTVSVYRARLLEKMKLKNNAELTHYALKHKLV | 0.0152
HMFRSTLEELKHQISGFLKANQSQEFTAQNLADGLRMTSIAEYKRVVNAMDALVRDGELTFDAGKYQYNPN | -0.279
HMGTVSSGSSSTDTPFSLGEIVRHKVFGEGVVLSIEGQGDASRIQINFNTAGTKWLVTAYADLEK | -0.219
HMSVDIWTGAQTGNIEAVKQHLADGVDVNSKSDIGRTALDVAIAFKQPLITDLLRKHGGKTRDELKAAE | 0.545
HMEVFTPSEANVAEAREILAAMATAKANGEGATVYKGRLVDIASIKQAEVIVRQSEMIQSAH | 0.408
HMYRWSEEIFEKLRSDIMAALDLSREQNDEEIYRFIETEVEEYSQNNLLTLKEREQLEHLLFNSL | -1.3
HMSTSERLKQVMEVKGFNLKTFSEQADIPYRTLQNYILTNREPSAESLAKLHSQLGINLNWLMSGKGEMF | -0.283
HMNTISYTELIKQIDEGNVEKVEMTVGSTSVKVKLQGQEEEKKAIVPNTQAFVELIQEKTLEGNQIDLKQN | -0.0333
HMTGIESVKPSSDFTVEGNRIVAGDAEVEVYDLAGRKVNNNNLTTGVYIAKIAGSAESVKVFV | 0.0109
HMDFNDPTMEKSLVELPAMSNSTLRDLSENNIKKLEELAEMSVGELMDIASKISESDASALIMEARKPWF | -0.137
HMAIDLPVTTVNGKDYYYYDVQPKETIFSLSQRLGISREEIISYNPGVDGGLKAYTRLYFPVESGL | -0.201
HMNTLSPVRILAILDGRSSMAEWQLAEELGVSIDNLSEILNKMSTDGQIRLVPSEDGRMVVP | 0.265
HMFPNSFSEREKEVVDLLLQAKSNKQIAFSLGITNRTVEYHLGNIFAKLGVSSRSEAILTITNYKNQ | -2.01
HMKLSKKVTDFLAQMPSKSISPKMLANNLGLADDAGDYKHLLKTIAQLEESKAIEVTAAGNIALPQPE | 0.0358
HMGVMNEYEELRDRYLTGQIWKIGDLVEAKGIEGKIIQRGTNYITFNDSQGKVHKAWLHEIKV | 0.184
HMETPQIVARGDLITMVFRSGSLVLTAKGKALENGAMGDTIRVVNSDSNKTLAARVSASREVTVSE | -0.417
HMHQVHKIDGVKYYLHLVEKGNTLYGISKQYNVSVERIEKANTEALSDGLKENQTLLIPVTSDNKKT | 0.0414
HMEIVQVIAQNIQDLLDKHKISVSELSGYLGISRQTLTNYLKTTSTIDSVQLVKIADFFNIPAEYLLKDH | -0.968
HMTRVANIPYSEFLKLVETDKINDVSMVGKTISGHLDDGTKFSTYTPPNDPNLIDKLSKHNVIIKAGPE | 0.0971
